The assay has as its target LoVo tumour cells (carcinoembryonic antigen, the antigen of A5B7, on the cells) (human) (UniProt P06731). Description: binding of the 125I-labelled conjugate to LoVo tumour cells, method of Lindmo et al.
UniProt P06731, sequence (P06731 35-702): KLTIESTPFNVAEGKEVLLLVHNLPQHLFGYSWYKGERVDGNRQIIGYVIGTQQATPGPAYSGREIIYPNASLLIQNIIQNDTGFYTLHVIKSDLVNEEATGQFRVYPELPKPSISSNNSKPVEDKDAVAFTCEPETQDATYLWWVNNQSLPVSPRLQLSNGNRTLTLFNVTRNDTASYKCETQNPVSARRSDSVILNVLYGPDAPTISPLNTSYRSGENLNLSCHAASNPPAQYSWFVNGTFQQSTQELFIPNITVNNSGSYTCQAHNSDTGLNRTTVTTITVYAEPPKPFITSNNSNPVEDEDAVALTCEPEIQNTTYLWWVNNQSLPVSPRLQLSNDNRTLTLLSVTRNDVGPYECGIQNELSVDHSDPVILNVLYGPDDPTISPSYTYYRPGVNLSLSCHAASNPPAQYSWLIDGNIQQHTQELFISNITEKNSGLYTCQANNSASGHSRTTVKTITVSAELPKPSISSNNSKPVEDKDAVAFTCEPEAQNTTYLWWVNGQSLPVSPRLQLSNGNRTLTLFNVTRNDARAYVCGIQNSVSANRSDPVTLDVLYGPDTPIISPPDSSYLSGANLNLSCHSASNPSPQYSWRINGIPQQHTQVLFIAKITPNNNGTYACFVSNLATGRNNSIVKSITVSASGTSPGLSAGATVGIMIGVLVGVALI

As to “murine A5B7 F(ab')2-bovine pancreatic ribonuclease conjugate, radioiodinated with 125I (from UniProt P61823 27-150)”, the immunoreactivity retained after radioiodination is above 50%.

Source of the values: patent WO1996020011A1.
